Assays:
[1] = molecular target: T1, biotinylated mouse EpoR-Fc protein (muEpoR-Fc) (mouse, UniProt P14753 25-249, limits assumed, biotinylated); assay: ELISA, antibody coated at 1 µg/ml, biotinylated muEpoR-Fc at 5 µg/ml, streptavidin-HRP
T1 construct: also called mouse EpoR (muEpoR); not shown: Fc part
T1 sequence (looked up): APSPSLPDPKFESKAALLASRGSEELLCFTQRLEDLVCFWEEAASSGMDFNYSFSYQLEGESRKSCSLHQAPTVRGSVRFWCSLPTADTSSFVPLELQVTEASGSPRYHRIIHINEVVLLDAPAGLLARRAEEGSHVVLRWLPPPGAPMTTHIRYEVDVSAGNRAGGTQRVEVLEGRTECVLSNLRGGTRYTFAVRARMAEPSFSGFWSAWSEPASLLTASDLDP

[2] = molecular target: T2, mouse EpoR (muEpoR) (mouse, UniProt P14753 25-249, limits assumed); assay: ELISA on coated muEpoR, scFv-Fc at 5 µg/ml (Example 17)
T2 sequence (looked up): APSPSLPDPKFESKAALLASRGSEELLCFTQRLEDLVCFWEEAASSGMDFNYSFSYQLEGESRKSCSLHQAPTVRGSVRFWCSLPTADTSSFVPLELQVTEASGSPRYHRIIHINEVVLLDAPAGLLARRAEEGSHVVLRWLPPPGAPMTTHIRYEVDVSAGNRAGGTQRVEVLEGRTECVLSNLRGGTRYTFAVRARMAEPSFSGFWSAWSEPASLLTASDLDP

[3] = molecular target: T3, huEpoR expressed on the cell surface (UT-7 cells) (human, UniProt P19235 25-508); assay: cell-based or functional assay
T3 sequence (looked up): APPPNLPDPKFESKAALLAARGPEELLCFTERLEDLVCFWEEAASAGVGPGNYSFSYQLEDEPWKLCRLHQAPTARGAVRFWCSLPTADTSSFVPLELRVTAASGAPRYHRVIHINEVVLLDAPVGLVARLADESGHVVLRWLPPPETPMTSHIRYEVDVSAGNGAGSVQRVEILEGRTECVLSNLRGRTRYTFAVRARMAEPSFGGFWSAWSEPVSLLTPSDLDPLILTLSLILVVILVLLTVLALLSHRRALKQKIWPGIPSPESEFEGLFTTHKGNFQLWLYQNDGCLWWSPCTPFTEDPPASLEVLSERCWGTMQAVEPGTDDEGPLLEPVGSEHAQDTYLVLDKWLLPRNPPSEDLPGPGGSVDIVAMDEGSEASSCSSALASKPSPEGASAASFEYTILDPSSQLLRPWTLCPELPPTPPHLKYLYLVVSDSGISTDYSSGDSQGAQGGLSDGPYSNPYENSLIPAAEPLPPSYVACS

[4] = molecular target: T4, huEpoR protein (soluble human erythropoietin receptor) (human, UniProt P19235 25-250, limits assumed); assay: SPR, Biacore T100; scFv-Fc captured on anti-human IgG Fc CM5 chip, EpoR as analyte; 1:1 fit;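 further: measured at 25 °C in HBS-EP buffer with 0.1 mg/ml BSA, flowed at 50 µl/min, 1 min association then dissociation (10 min human, 5 min cyno EpoR)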
T4 construct: also called soluble huEpoR; biotinylated huEpoR
T4 sequence (looked up): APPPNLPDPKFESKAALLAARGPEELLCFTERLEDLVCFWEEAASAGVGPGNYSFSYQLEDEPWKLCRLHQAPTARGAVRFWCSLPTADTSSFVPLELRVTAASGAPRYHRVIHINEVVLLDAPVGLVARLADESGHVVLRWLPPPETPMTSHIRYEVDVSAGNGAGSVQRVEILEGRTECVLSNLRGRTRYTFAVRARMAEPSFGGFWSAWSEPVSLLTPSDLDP

[5] = molecular target: T5, cynomolgus monkey EpoR (cynoEpoR) (cynomolgus monkey, UniProt A0A2K5WKK4 25-250); assay: SPR, Biacore T100; scFv-Fc captured on anti-human IgG Fc CM5 chip, EpoR as analyte; steady-state fit; steady-state fit; cyno EpoR
T5 construct: Soluble protein (coated in ELISA, analyte in SPR)
T5 sequence: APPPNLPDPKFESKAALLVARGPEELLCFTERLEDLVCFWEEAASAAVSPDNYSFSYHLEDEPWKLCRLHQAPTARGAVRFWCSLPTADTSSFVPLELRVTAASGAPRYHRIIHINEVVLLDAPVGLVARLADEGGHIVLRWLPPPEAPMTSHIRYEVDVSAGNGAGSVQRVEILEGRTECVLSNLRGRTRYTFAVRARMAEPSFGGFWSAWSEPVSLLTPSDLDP

B1: clone 30 IgG2 protein (antibody, V domains shown)
VH: QVQLQESGPGLVKPSQTLSLTCAISGDSVSSNSAAWNWIRQSPSRGLEWLGRTYYRSKWYNDYAVSVKSRMTIKADTSKNQFSLQLNSVTPEDTAVYYCARDEGPLDYWGQGTLVTVSA
VL: QAVLTQPSSVSGAPGQRVTISCTGSSSNLGTGYDVHWYQQLPGTAPKLLIYGNSNRPSGVPDRFSGSKSDTSGLLAITGLQAEDEATYYCQSYDFSLSAMVFGGGTKVTVL
notes: Human IgG2 (VH in an IgG2 heavy chain expression vector; light chain constant type matches the variable light chain isotype)
- binding result [1]: binds

B2: clone 10 IgG2 protein (antibody, V domains shown)
VH: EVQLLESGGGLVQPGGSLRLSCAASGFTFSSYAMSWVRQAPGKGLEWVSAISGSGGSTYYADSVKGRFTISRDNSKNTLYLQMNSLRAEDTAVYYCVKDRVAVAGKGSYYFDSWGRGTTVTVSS
VL: QSVLTQPPSVSEAPGQRVTIACSGSSSNIGNNAVSWYQQLPGKAPTLLIYYDNLLPSGVSDRFSGSKSGTSASLAISGLQSEDEADYYCAAWDDSLNDWVFGGGTKVTVL
notes: as for B1
- binding result [1]: binds

B3: Mxb 34 (clone 34 scFv-Fc protein) (Fc fusion)
VH: QVQLQQSGAEVKKPGASVKVSCKASGYTFSGYYMHWVRQAPGQGLEWMGWINPNSGSTNYAQKFLGRVTMTRDTSISTAYMELSSLRSDDTAVYYCARGHSGDYFDYWGQGTLVTVSA
VL: EIVLTQSPSSLSASVGDRVTITCRASQSVSSWLAWYQQRPGQAPKLLIYAARLRGGGPSRFSGSGSGTEFTLTISSLQPEDFATYFCQQSYSTPISFGGGTKLEIK
notes: Tested as scFv-Fc (maxibody) with an Fc derived from human IgG1
- binding result [2]: no binding (tested: 5 µg/ml)
- Average EC50 (nM), UT-7-luciferase (STAT5 reporter) assay [3]: 0.11 nM
- Ratio (EC50 of Epo / EC50 of the scFv-Fc), UT-7-luciferase assay [3]: 0.088
- Kd [4]: 378 nM
- koff [4]: 0.203 s⁻¹
- kon [4]: 536000 M⁻¹ s⁻¹
- Kd [5]: 5810 nM

B4: Mxb 318 (clone 318 scFv-Fc protein) (Fc fusion)
VH: QVQLVESGGGLVQPGGSLRLSCAVSGFTFSKYWMTWVRQAPGKGLEWVANIKPDGSEKYYVESVKGRFTISRDNAKNSVYLQMNSVRAEDTAVYYCARVSRGGSFSDWGQGTLVTVSS
VL: QSVLTQPPSASGSPGQSVTISCTGTSSDVGGYNYVSWYQQHPGRAPKLIIYEVSKRPSGVPDRFSGSKSGNTASLTVSGLQADDEADYYCNSYAGSIYVFGSGTKVTVL
notes: as for B3
- binding result [2]: no binding (tested: 5 µg/ml)
- Average EC50 (nM), UT-7-luciferase (STAT5 reporter) assay [3]: 0.0154 nM
- Ratio (EC50 of Epo / EC50 of the scFv-Fc), UT-7-luciferase assay [3]: 0.623
- Kd [4]: 847 nM
- koff [4]: 0.558 s⁻¹
- kon [4]: 659000 M⁻¹ s⁻¹
- Kd [5]: 4890 nM

B5: clone 2 IgG2 protein (antibody, V domains shown)
VH: EVQLVQSGGGLVQPGGSLRLSCAASGFTFSSYWMSWVRQAPGKGLEWVANIKPDGSEKYYVDSVKGRFTISRDNAKNSVYLQMNSLRAEDTAVYYCARVSRGGSYSDWGQGTLVTVSS
VL: QSVLTQPPSASGSPGQSVTISCTGTSSDVGGYNYVSWYQQHPGKAPKLMIYEVSKRPSGVPDRFSGSKSGNTASLTVSGLQPEDEADYYCSSYAGRNWVFGGGTQLTVL
notes: Human IgG2 (VH in an IgG2 heavy chain expression vector; light chain constant type matches the variable light chain isotype); also called IgG2 2; IgG22
- binding result [1]: binds

B6: clone 5 IgG2 protein (antibody, V domains shown)
VH: EVQLVESGGGLVQPGGSLRLSCAASGFTFSSYWMSWVRQAPGKGLEWVANIKPDGSEKYYVDSVKGRFTISRDNAKNSVYLQMNSLRAEDTAVYYCARVSRGGSYSDWGQGTLVTVSS
VL: QSALTQPASVSGSPGQSITISCTGTSSDVGGYIYVSWYQQHPGKAPKLMIYDVSRRPSGISDRFSGSKSGNTASLTISGLQAEDEADYYCNSYTTLSTWLFGGGTKVTVL
notes: Human IgG2 (VH in an IgG2 heavy chain expression vector; light chain constant type matches the variable light chain isotype); also called IgG2 5; IgG25
- binding result [1]: binds

B7: clone 7 IgG2 protein (antibody, V domains shown)
VH: EVQLVQSGGGLVQPGGSLRLSCAASGFTFSSYWMSWVRQAPGKGLEWVANIKPDGSEKYYVDSVKGRFTISRDNAKNSVYLQMNSLRAEDTAVYYCARVSRGGSYSDWGKGTLVTVSS
VL: QSALTQPASVSGSPGQSIIISCTGTRSDIGGYNYVSWYQHHPGRAPKLIIFDVNNRPSGVSHRFSGSKSGNTASLTISGLQAEDEADYYCNSFTDSRTWLFGGGTKLTVL
notes: as for B1
- binding result [1]: binds

Source: US20080102065A1 (published 2008)
